# In patent US20150158912A1 (CLEVELAND CLINIC FOUNDATION, published 2015):
# Positions count from the first letter of the chain named. Numbers in names are those of the source.
# T1: Act1 in IL-17RB-deficient MEFs reconstituted with Myc-tagged IL-17RB (mouse (cells are mouse embryonic …, UniProt Q8N7N6 1-555))
# T1 construct: That the co-precipitated Act1 is the cells' own is read from the description of the experiment
# T1 sequence (looked up): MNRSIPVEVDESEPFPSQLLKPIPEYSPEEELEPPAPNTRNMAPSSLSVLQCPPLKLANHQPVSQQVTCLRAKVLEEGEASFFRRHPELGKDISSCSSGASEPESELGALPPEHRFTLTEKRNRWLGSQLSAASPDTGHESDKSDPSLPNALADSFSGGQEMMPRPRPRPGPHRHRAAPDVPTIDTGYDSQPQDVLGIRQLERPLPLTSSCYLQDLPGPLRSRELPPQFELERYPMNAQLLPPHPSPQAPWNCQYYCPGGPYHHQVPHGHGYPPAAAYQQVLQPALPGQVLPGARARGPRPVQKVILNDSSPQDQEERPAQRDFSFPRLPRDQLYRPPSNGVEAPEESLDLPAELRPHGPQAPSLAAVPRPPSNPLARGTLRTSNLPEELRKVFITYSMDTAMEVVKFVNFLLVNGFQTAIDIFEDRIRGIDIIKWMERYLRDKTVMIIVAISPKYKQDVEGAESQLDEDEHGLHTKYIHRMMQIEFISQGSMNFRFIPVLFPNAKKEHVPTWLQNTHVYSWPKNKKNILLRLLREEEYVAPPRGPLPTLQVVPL
# T2: V5-tagged human IL-17RA, wild type (human, UniProt Q96F46 33-866, limits assumed)
# T2 construct: Expressed in HeLa cells and immunoprecipitated from the lysate; also called V5-tagged IL-17RA; the wild-type receptor
# T2 sequence (looked up): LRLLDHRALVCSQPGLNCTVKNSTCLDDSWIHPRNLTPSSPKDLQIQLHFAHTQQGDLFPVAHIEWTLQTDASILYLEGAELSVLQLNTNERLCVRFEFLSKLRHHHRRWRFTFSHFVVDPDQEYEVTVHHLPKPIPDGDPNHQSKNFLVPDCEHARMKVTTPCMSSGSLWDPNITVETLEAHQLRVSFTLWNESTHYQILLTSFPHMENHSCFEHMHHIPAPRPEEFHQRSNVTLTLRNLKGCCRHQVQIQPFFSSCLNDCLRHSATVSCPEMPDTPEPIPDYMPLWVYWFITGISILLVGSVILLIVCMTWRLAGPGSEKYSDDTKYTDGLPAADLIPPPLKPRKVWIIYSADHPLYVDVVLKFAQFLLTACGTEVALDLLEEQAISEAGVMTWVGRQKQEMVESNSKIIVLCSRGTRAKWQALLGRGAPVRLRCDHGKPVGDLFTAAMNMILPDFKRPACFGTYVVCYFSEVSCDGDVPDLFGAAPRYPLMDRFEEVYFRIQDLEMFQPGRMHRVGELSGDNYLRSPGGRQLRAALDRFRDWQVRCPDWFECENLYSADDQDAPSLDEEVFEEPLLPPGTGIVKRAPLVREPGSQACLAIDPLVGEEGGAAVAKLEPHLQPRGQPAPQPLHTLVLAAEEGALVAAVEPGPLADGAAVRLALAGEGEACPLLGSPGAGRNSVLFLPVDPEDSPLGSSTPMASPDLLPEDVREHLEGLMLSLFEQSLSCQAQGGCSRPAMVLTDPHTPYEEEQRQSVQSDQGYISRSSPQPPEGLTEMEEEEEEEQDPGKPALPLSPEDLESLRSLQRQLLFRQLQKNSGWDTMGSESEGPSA
# B1: Myc-tagged mouse IL-17RB point mutant L419D (receptor, UniProt Q9JIP3 18-499, looked up)
# chain: REPTIQCGSETGPSPEWMVQHTLTPGDLRDLQVELVKTSVAAEEFSILMNISWILRADASIRLLKATKICVSGKNNMNSYSCVRCNYTEAFQSQTRPSGGKWTFSYVGFPVELSTLYLISAHNIPNANMNEDSPSLSVNFTSPGCLNHVMKYKKQCTEAGSLWDPDITACKKNEKMVEVNFTTNPLGNRYTILIQRDTTLGFSRVLENKLMRTSVAIPVTEESEGAVVQLTPYLHTCGNDCIRREGTVVLCSETSAPIPPDDNRRMLGGWLPLFLVLLVAVWVLAAGIYLTWRQGRSTKTSFPISTMLLPLIKVLVVYPSEICFHHTVCRFTDFLQNYCRSEVILEKWQKKKIAEMGPVQWLTTQKQAADKVVFLLPSDVPTLCDSACGHNEGSARENSQDDFPLAFNLFCSDFSSQTHLHKYLVVYLGGADLKGDYNALSVCPQYHLMKDATAFHTELLKATQSMSVKKRSQACHDSCSPL
# B2: Myc-tagged mouse IL-17RB point mutant L422D (receptor, UniProt Q9JIP3 18-499, looked up)
# chain: B1 chain with D402L, L405D
# B3: FLAG-tagged mouse Act1 point mutant H472D (other, UniProt Q8N7N6 1-555, looked up)
# chain: T1 sequence (looked up) with H475D
# Tests used:
# [1] = target: T1, Act1 in IL-17RB-deficient MEFs …; assay: co-immunoprecipitation in reconstituted IL-17RB-deficient MEFs (IP anti-Myc)
# [2] = target: T2, V5-tagged human IL-17RA, wild type; assay: co-immunoprecipitation, as told back in Example 9
Binder,binding result [1],binding result [2]
B1,no binding,–
B2,no binding,–
B3,–,no binding
